B1: A13c4 Fab fragment (Fab, V domains shown)
VH: QVTLRESGPALVKPTQTLTLTCTFSGFSLSTAGMSVGWIRQPPGKALEWLADIWWDGKKSYNPSLKDRLTISKDTSKNQVVLKVTNMDPADTATYYCARDMIFNFYFDVWGQGTTVTVSS
VL: DIQMTQSPSTLSASVGDRVTITCSLSSRVGYMHWYQQKPGKAPKLLIYDTMYQSSGVPSRFSGSGSGTEFTLTISSLQPDDFATYYCFQGSGYPFTFGGGTKVEIK
B2: A1h5 Fab fragment (Fab, V domains shown)
VH: B1 VH with S60H, F105W
VL: B1 VL with R28S, M51F, Y52F, Q53H, S54R
B3: A13a11 Fab fragment (Fab, V domains shown)
VH: B1 VH with G57D, S60H, F105W
VL: B1 VL with L25P, M51Y, Y52R, Q53H
B4: A4B4 Fab fragment (Fab, V domains shown)
VH: B1 VH with G57D, S60H
VL: B1 VL with L25A, M51F, Y52F, Q53L, S54D

Where a chain is given by its changes, count along the chain named.

In this assay the target is RSV F protein on respiratory syncytial virus (RSV-Long strain) (respiratory syncytial virus (Long strain)) (UniProt P12568). As to the kind of experiment: cell-based or functional assay.
Sequence of RSV F protein on respiratory syncytial virus (RSV-Long strain) (respiratory syncytial virus (Long strain)) (P12568 26-574): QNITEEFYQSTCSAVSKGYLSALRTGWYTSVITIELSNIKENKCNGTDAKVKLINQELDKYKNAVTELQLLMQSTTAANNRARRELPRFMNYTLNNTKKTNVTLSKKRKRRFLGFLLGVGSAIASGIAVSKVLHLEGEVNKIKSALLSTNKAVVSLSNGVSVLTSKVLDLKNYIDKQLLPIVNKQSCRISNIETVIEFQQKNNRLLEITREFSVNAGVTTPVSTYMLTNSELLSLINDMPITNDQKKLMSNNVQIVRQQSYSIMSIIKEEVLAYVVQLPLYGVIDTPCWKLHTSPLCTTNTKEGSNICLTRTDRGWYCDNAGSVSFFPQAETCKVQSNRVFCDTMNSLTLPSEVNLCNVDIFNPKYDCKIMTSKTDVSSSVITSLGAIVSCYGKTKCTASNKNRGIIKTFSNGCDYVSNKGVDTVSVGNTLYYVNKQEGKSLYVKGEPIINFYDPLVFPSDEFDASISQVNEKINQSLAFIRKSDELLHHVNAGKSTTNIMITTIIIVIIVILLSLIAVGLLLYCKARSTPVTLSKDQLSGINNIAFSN
As for B1, the Fold Difference (Control IC50) worked out at 21 fold; the Fold Difference (Curve IC50) amounted to 17 fold; the Mean IC50 (Control), RSV microneutralization was found to be 0.0258 µg/mL; the Mean IC50 (Curve), RSV microneutralization was determined as 0.0264 µg/mL.
For B2 the same measures were 3 fold, 2 fold, 0.176 µg/mL and 0.194 µg/mL.
The matching figures for B3: 5 fold, 4 fold, 0.102 µg/mL and 0.12 µg/mL.
For B4 the same measures were 13 fold, 11 fold, 0.0411 µg/mL and 0.0414 µg/mL.

Values taken from US20070110757A1.
